# Test results published in the supplement of paper PMC10567573.
# B1: SETD8 (parent)
# chain: KKAQGKTQQNRKLTDFYPVRRSSR
# Variants of: B1
# Assay: protein stability index of a GFP-peptide fusion (GPS, HEK-293T) (PSI 1-6); higher = more stable
# Conditions: c terminus: a fixed tail appended
# 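Also: lentivirally expressed fusions sorted by FACS into six bins by GFP to DsRed ratio, PSI derived from sequencing read proportions per bin multiplied by bin number.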
row,Variant,protein stability index
1,L13C,4.07
2,L13R,5.53
3,R11S,2.85
4,F16M,3.81
5,K12V,2.32
6,Y17T,2.06
7,Q8H,2.59
8,K2T,3.1
9,K6R,3.1
10,S22L,2.02
11,L13T,3.51
12,K1R,2.24
13,R11H,3.68
14,Y17M,3.05
15,Y17F,2.72
16,Q9A,3.26
17,L13Q,3.79
18,Q4T,1.87
19,T14A,3.99
20,Y17W,1.41
21,K1L,4.04
22,R21K,2.66
23,Q8V,3.2
24,R21I,3.33

row,Variant,protein stability index
1,R11E,2.15
2,Q9Y,2.92
3,T14S,2.72
4,A3D,3.79
5,T7R,3.38
6,D15Y,2.77
7,T7D,3.32
8,Q8L,2.41
9,R24A,2.12
10,S22M,3.38
11,V19G,4.08
12,T14V,3.67
13,Q4R,1.99
14,T14R,3.11
15,R21N,3.2
16,N10D,4.38
17,N10H,3.49
18,T7L,3.08
19,R20C,2.78
20,F16D,2.58
21,R24M,3.16
22,S23G,1.83
23,K2Y,2.43
24,R20M,2.94

row,Variant,protein stability index
1,R20Q,3.48
2,G5E,2.89
3,R24S,3.83
4,D15C,2.52
5,Q4H,2.73
6,T14L,3.72
7,D15S,3.12
8,K12H,1.53
9,K12L,3.41
10,Q4K,3.35
11,T14Q,3.33
12,P18M,3.82
13,Q9P,1.78
14,R11W,2.76
15,D15W,4.09
16,Q9G,1.89
17,R21D,3.23
18,R20K,1.93
19,R21W,2.57
20,T7E,2.9
21,G5Y,2.92
22,R11F,2.91
23,R24T,2.75
24,A3E,3.01

row,Variant,protein stability index
1,Q8A,2.45
2,T14E,4.32
3,R24L,2.08
4,F16I,2.99
5,R20Y,2.25
6,R11Q,2.71
7,L13K,5.04
8,Y17K,4.5
9,V19W,2.09
10,D15I,3.18
11,N10G,1.42
12,T7S,2.26
13,R24P,3.87
14,L13D,4.69
15,K2L,1.57
16,K2P,2.13
17,P18T,3.77
18,S23T,2.23
19,G5D,2.89
20,Q9M,2.25
21,R11L,2.43
22,P18A,3.16
23,T14W,3.4
24,D15R,3.62

row,Variant,protein stability index
1,R20F,2.63
2,L13E,2.77
3,R11I,2.45
4,R11Y,2.94
5,V19M,3.01
6,P18Q,1.74
7,K6I,2.09
8,F16Y,3.29
9,R21V,3
10,S23E,3.5
11,V19D,3.32
12,S22A,2.92
13,F16C,2.71
14,F16P,3.07
15,N10E,2.67
16,N10C,3.63
17,L13S,2.79
18,P18F,2.61
19,S23A,3.62
20,K6M,1.62
21,K2G,3.04
22,A3G,3.27
23,K12T,2.4
24,Q4G,2.22

row,Variant,protein stability index
1,T14I,2.63
2,V19A,4.57
3,V19R,4.2
4,R11A,1.6
5,V19Q,3.49
6,K6A,3.18
7,K1H,1.54
8,F16A,2.54
9,T7F,1.95
10,K6S,1.73
11,G5R,1.44
12,A3R,3.17
13,K1T,2.62
14,R20D,3.66
15,A3Y,2.73
16,R20W,3.22
17,T7H,2.88
18,P18C,2.47
19,Q4C,1.64
20,V19N,3.29
21,L13F,3.52
22,Q4Y,2.18
23,G5H,1.83
24,K2F,1.97

row,Variant,protein stability index
1,K6N,2.82
2,K2W,3.07
3,T14M,1.79
4,V19H,3.63
5,K2H,3.35
6,T14N,3.49
7,A3I,2.84
8,G5L,2.77
9,K1C,1.22
10,S22T,2.63
11,A3S,3.47
12,D15A,2.85
13,R20T,1.92
14,G5V,2.65
15,Q9D,2.83
16,R20P,4.13
17,T14H,3.1
18,K6P,2.06
19,K2Q,1.83
20,K12D,2.98
21,P18Y,2.51
22,S23R,2.16
23,R11T,2.19
